Results published in patent US20150299797A1, “COMPOSITIONS AND METHODS RELATING TO BLOOD-BASED BIOMARKERS OF BREAST CANCER” (UNIVERSITY OF UTAH RESEARCH FOUNDATION, priority 2012, published 2015).
“Also recorded” adds a separate entry of the source.

Test system: normal mammary epithelial cells from high-risk (HBC) women or control women
Assay: Drug response assay (CellTiter-Glo cell viability, dose-response)
Assay type: cell-based, human
Conditions: HBC/high-risk vs control, viability after 96 hours, TRAIL p-value<0.001
Procedure: Normal mammary epithelial cells isolated from either high-risk women undergoing prophylactic mastectomy or control women with no family history of breast cancer undergoing breast-reduction surgery for non-cancer related health issues were isolated, and single-cell suspensions were generated. 1500 cells/well for each patient samples were plated in 40 microliters of MEBM basal media supplemented with a MEGM Bulletkit [Lonza] in half-well 96-well plates [Nunc] in triplicate for each drug dose. After 24 hours, TRAIL, Afatinib, Gefitinib, and EGF were added. The indicated doses were chosen within the average linear range of drug effect: TRAIL (0.1 ng/mL-5.0 ng/ml), Afatinib (10 nM-[…]), Gefitinib (0.001 mM-0.5 mM), EGF (5 ng/mL-500 ng/mL) [Millipore (TRAIL) and Selleckchem]. A BIOMEK 3000 (Beckman Coulter, Brea, Calif., USA) robot was used to seed the cells and dispense the drugs. After 96 hours, cell viability was quantified using the CellTiter-Glo Luminescent Cell Viability Assay [Promega]. The proportion of viable cells was calculated for each dosage by comparing against cell counts for non-treated cells. A summary value was calculated for each cell line as the slope of a linear-regression line fitted to the cell-count proportions.

B1: TRAIL: TNF-related apoptosis inducing ligand (TRAIL), from Millipore (protein, UniProt P50591 1-281, looked up)
Tumor necrosis factor ligand …: MAMMEVQGGPSLGQTCVLIVIFTVLLQSLCVAVTYVYFTNELKQMQDKYSKSGIACFLKEDDSYWDPNDEESMNSPCWQVKWQLRQLVRKMILRTSEETISTVQEKQQNISPLVRERGPQRVAAHITGTRGRSNTLSSPNSKNEKALGRKINSWESSRSGHSFLSNLHLRNGELVIHEKGFYYIYSQTYFRFQEEIKENTKNDKQMVQYIYKYTSYPDPILLMKSARNSCWSKDAEYGLYSIYQGGIFELKENDRIFVSVTNEHLIDMDHEASFFGAFLVG
  response of primary breast cells of HBC women compared to controls (proportion of viable cells, slope of fitted dose-response): significantly increased response; also recorded: significantly more responsive
